We go through five molecules from publication PMC5974017, “Increased glutarate production by blocking the glutaryl-CoA dehydrogenation pathway and a catabolic pathway involving L-2-hydroxyglutarate” (Nature Communications, 2018).

A word on the Km: it is the substrate concentration at which the rate is half of its maximum. For orientation: Vmax means the rate approached at saturating substrate. One may read the kcat/Km as the second-order rate constant that governs catalysis at low substrate concentration. By stoichiometry N is commonly meant the number of molecules, sites or subunits per partner or assembly.

The target of series [1] is T1, LhgO (Pseudomonas putida, UniProt Q88IT9).
T1 construct: recombinant His-tagged from E. coli BL21(DE3), pETDuet-1; partly lost FAD on purification
T1 sequence (Q88IT9 1-416): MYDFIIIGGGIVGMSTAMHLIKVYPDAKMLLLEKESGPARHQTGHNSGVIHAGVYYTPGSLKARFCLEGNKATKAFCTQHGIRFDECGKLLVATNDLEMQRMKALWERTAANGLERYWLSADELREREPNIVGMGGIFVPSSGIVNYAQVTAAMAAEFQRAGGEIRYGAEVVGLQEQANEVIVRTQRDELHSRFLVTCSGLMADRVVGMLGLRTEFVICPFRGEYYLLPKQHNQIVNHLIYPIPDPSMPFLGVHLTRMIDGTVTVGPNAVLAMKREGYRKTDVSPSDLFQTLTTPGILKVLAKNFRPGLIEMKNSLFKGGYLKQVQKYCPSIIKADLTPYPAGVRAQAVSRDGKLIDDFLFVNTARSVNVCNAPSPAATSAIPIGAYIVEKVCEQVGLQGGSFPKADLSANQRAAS
In words: oxygen electrode, stimulation of oxidase activity. To be noted: enzyme preincubated with 50 μM FAD 1 h on ice; 5 mM L-2-HG, Tris-HCl pH 7.4, 30 °C. The series is classed as biochemical.

The target in series [2] is T2, YgaF (Escherichia coli, UniProt P37339).
T2 construct: gene lhgD; recombinant from E. coli BL21(DE3), pETDuet-1, HisTrap purified
T2 sequence (P37339 1-422): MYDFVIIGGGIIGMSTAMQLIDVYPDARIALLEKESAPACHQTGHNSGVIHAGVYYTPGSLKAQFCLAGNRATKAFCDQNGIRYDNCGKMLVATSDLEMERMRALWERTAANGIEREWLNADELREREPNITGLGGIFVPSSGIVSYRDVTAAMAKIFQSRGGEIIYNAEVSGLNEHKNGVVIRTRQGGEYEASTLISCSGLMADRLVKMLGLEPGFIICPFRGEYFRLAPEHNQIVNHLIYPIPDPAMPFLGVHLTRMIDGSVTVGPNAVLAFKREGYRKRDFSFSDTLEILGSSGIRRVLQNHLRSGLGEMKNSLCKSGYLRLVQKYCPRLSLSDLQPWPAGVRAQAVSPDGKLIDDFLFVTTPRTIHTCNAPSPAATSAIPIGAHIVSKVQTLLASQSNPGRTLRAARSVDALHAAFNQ
In words: L-2-HG oxidation to 2-KG; oxygen electrode. To be noted: 50 mM Tris-HCl pH 7.4, 30 °C, 5 mM L-2-HG. The series is classed as biochemical.

The target of series [3] is T1, LhgO. In words: DCPIP reduction at […] nm; product 2-KG by HPLC and LC-MS/MS. The series is classed as biochemical. To be noted: 50 mM Tris-HCl pH 7.4, 30 °C, 5 mM L-2-HG, 0.1 mM DCPIP.
For series [4], the target named is T3, LhgO homolog from Klebsiella pneumoniae ATCC25955 (Klebsiella pneumoniae, UniProt A6T539).
T3 construct: gene ygaF; recombinant from E. coli BL21(DE3), pETDuet-1, HisTrap purified
Description: L-2-HG oxidation to 2-KG. It counts as biochemical.

In series [5] the target is T4, CsiD homolog from E. coli K-12 MG1655 (Escherichia coli, UniProt P76621).
T4 construct: gene glaH; recombinant from E. coli BL21(DE3), pETDuet-1, HisTrap purified
In words: glutarate hydroxylation by purified homolog. The series is classed as biochemical. To be noted: co-substrate 2-KG.

Series [6] addresses T5, CsiD homolog from Klebsiella pneumoniae ATCC25955 (Klebsiella pneumoniae, UniProt A6T540).
T5 construct: recombinant from E. coli BL21(DE3), pETDuet-1, HisTrap purified
Description: glutarate hydroxylation by purified homolog. It counts as biochemical. To be noted: co-substrate 2-KG.

In series [7] the test system is O=C(O)CCCC(=O)O. Description: Clark-type oxygen electrode, double-reciprocal plot. It counts as biochemical, Pseudomonas putida. To be noted: pH 6.7. The text has this:
(§1) Clark-type oxygen electrode, double-reciprocal plot on CsiD

The subject of series [8] is O=C(O)CCC(=O)C(=O)O. Described as above. Particulars: pH 6.7. The series is classed as biochemical, Pseudomonas putida.
Text: as §1

Series [9] deals with the molecule itself. In words: SEC; Superdex 200 10/300 GL, eluent buffer C (50 mM sodium phosphate, 150 mM sodium chloride, pH 7.2), flow 0.5 mL min^-1; calibrated with thyroglobulin, ferritin, aldolase, conalbumin, ovalbumin and RNase A; native mass divided by the calculated monomer mass of 38.9 kDa.

T4 sequence (P76621 whole entry): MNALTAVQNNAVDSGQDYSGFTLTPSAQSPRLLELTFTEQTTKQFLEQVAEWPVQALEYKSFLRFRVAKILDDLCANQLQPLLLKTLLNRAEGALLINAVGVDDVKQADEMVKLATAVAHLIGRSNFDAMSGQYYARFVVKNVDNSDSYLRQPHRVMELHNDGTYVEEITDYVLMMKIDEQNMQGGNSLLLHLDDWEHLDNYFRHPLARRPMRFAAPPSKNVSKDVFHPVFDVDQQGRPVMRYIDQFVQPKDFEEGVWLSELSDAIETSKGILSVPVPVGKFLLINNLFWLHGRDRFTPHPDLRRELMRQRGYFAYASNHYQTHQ
T5 sequence (A6T540 entry or part of it): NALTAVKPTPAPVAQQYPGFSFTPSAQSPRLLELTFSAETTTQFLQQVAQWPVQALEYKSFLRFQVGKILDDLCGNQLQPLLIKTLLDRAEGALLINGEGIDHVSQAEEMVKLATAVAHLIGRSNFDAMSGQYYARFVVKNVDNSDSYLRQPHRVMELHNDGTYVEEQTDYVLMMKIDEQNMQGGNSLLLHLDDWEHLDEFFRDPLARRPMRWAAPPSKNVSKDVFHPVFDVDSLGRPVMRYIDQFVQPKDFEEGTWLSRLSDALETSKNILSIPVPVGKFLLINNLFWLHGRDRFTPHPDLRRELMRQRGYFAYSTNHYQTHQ
T3 sequence (A6T539 entry or part of it): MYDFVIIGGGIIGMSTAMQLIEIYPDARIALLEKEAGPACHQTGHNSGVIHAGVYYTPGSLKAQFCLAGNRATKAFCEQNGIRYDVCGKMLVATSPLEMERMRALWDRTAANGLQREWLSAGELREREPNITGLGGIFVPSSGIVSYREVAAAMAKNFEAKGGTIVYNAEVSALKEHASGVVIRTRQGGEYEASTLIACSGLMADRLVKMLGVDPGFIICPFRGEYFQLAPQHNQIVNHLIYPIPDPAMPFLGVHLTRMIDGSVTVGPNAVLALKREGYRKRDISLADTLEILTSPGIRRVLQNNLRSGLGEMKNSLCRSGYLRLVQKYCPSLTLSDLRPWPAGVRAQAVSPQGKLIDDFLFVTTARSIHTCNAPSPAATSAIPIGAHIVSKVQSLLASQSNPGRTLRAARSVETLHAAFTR

As for `Cc1cc2nc3c(=O)[nH]c(=O)nc-3n(C[C@H](O)[C@H](O)[C@H](O)COP(=O)(O)OP(=O)(O)OC[C@H]3O[C@@H](n4cnc5c(N)ncnc54)[C@H](O)[C@@H]3O)c2cc1C` [FAD], in series [1], the “oxygen electrode, stimulation of oxidase activity” value is “The oxidase activity of LhgO can be stimulated by FAD”.
Regarding `O=C(O)CC[C@H](O)C(=O)O` [L-2-HG], the “L-2-HG oxidation to 2-KG; oxygen electrode” value in series [2] is listed as “the homologs of LhgO can catalyze L-2-HG to produce 2-KG”. In addition, the “DCPIP reduction at 600 nm; product 2-KG by HPLC and LC-MS/MS” value in series [3] is recorded as “Robust activity was detected only when L-2-HG was used as the substrate”. In series [4], the “L-2-HG oxidation to 2-KG” value is reported as “the homologs of LhgO can catalyze L-2-HG to produce 2-KG”.
On to `O=C(O)CCCC(=O)O` [glutarate], for which the “glutarate hydroxylation by purified homolog” value in series [5] and in [6] was “All three homologs of CsiD can catalyze the hydroxylation of glutarate” each time.
With CsiD (Pseudomonas putida KT2440), in [7], the Km worked out at 145.67 ± 1.53 µM, the Vmax was 264 µmol/min/mg and the kcat/Km was 6.93e+06 ± 30000 M⁻¹ s⁻¹. In [8], the Km came out at 95.33 ± 0.97 µM, the Vmax was 144 µmol/min/mg and the kcat/Km is 7.49e+06 ± 120000 M⁻¹ s⁻¹.

B1: CsiD of P. putida KT2440, glutarate hydroxylase (enzyme, Pseudomonas putida KT2440, UniProt Q88IU0 1-325, looked up)
chain: MNAFTQIDELVMPLPLEPQGYTIAPSKQSPRLLELTFARETVEAFVQAVAQWPVQALEYKSFLRFRVGEILDELCQGTLRPVLLNTILDRATGGMLITPIGLDDVSQAEDMVKFTTACAHLIGRSNYDAMSGQFYARFVVVNSDNSDSYLRQPHRVMELHNDGTFVNQITDYVLMLKIDEKNMEGGNSLLLHLDDWEQCEAFFRHPLARREMRWTAPPSKKVAEDVFHSVFDTDAEGRPTMRYIDQFVQPENYEEGIWLNALSESLEGSGKKVSVPVGVGSFLLINNLFWLHGRDRFTPHEGLRRELMRQRGYVAFPKPLYQRGQ
notes: CsiD (glutarate hydroxylase) of Pseudomonas putida KT2440, locus PP2909; gene amplified from genomic DNA with primers csiD-F/csiD-R and cloned EcoRI/HindIII into pETDuet-1; also called PP2909; Fe2+/2-KG-dependent glutarate hydroxylase; source: E. coli BL21(DE3) harboring pETDuet-csiD, purified (HisTrap HP column)
Regarding B1, the “stoichiometry N” value in series [9] was 8.
